Legend:
[1] = target: full length human Bcl-xL S4C, C151A, labelled (human) (UniProt Q07817); assay: fluorescence cross-correlation spectroscopy (FCCS) in solution; both partners free in solution, one with a green and one with a red dye; 150 mM NaCl, 20 mM Tris, pH 7.5; incubated at least 30 min (1 h for the cBidG titration); protein concentrations up to 200 nM; CC above 2.8% indicates interaction
[2] = target: full length human Bcl-xL S4C, C151A, labelled (human) (UniProt Q07817); assay: scanning FCCS in giant unilamellar vesicles; membrane-embedded proteins in GUVs (30% CL or MOM mix), 22 °C; membrane insertion with cBid (labelled cBid as partner, or unlabeled cBid as activator; for Bax with Bcl-xL: cBid, Bax and GUVs incubated 30 min before Bcl-xL was added); mean CC above 20% indicates interaction
[3] = target: full length human Bax S4C, C62S, C126S, labelled (human) (UniProt Q07812); assay: as above
[4] = target: full length human Bcl-xL S4C, C151A, labelled (human) (UniProt Q07817); assay: FCCS kinetics in solution fitted with an ODE model; Bcl-xLR and Bcl-xLG mixed and incubated 2 h at RT, then 400 nM unlabeled cBid (~10-fold excess) or buffer added at t = 0; CC followed over time; rate constants from the ODE model of scenario 2 with likelihood profiles (95% confidence)

Sequence of UniProt Q07817 (Q07817 whole entry S4C/C151A): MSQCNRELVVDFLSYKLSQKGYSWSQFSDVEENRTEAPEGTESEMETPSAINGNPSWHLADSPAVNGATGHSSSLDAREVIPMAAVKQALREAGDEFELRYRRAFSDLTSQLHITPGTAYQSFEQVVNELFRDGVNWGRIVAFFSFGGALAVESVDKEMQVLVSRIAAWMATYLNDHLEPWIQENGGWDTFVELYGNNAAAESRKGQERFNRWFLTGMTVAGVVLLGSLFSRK
Sequence of UniProt Q07812 (Q07812 whole entry S4C/C62S/C126S): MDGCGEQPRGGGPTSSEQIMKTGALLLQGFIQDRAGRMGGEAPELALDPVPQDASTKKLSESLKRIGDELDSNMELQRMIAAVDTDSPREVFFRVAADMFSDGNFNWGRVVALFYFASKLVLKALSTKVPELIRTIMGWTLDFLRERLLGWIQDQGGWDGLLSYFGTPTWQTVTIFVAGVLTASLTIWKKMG

“cBid (caspase 8-cleaved full length mouse Bid) labelled at the C-terminal fragment (complex)” was tested, and the %CC [1] was < 40 % CC, the %CC [2] was > 60 % CC and the %CC [3] was < 40 % CC.
In the case of “cBid (caspase 8-cleaved full length mouse Bid), unlabeled (complex)”, the k+3 (cBid with a Bcl-xL homo-dimer, giving a cBid/Bcl-xL hetero-dimer and a Bcl-xL monomer) [4] is reported as 10 to 700 M⁻¹ s⁻¹.
“full length human Bax S4C, C62S, C126S, labelled (from UniProt Q07812 1-192) (natural protein)” was tested, and the %CC (highest, in single GUVs) [3] was < 100 % CC.
